Measured values as given in patent US20230189818A1, “RNA-BASED CONTROL OF BOTRYTIS” (priority 2021, published 2023).

B1: GS2589: dsRNA trigger targeting B. cinerea Bcsec15 (XM_024692064.1); trigger SEQ ID NO 49, RNA 53, reverse complement 57 (nucleic acid, listed as Botrytis cinerea)
sense: GGUAUGUUCCGGACAGACCGAAAGAAGAAUACACAUUCCCCGGUGUAUUACCAUUCUCCCAGAUGUACCCAAUGUGCUGUAUAGAUAUCAGAAAUUUCCUGAAUCGAUUCUACUUCAUAAUGGAUGAUCAUUUUCAACAGCCAAACAUUAUUGAUGAGACACUUAAGAAGUCGAUAGAUGAGCUUCUGUCUGAGGAUAUUU
antisense: AAAUAUCCUCAGACAGAAGCUCAUCUAUCGACUUCUUAAGUGUCUCAUCAAUAAUGUUUGGCUGUUGAAAAUGAUCAUCCAUUAUGAAGUAGAAUCGAUUCAGGAAAUUUCUGAUAUCUAUACAGCACAUUGGGUACAUCUGGGAGAAUGGUAAUACACCGGGGAAUGUGUAUUCUUCUUUCGGUCUGUCCGGAACAUACC
B2: GS2291: dsRNA trigger targeting B. cinerea Bcgpi2 (XM_024693470.1); trigger SEQ ID NO 22, RNA 34, reverse complement 46 (nucleic acid, listed as Botrytis cinerea)
sense: CUGUCAACCAAUUGCGCAUGACAAAUGGAGAUGCUGGACGAUUAAGAAGUAGAGGAAGACAUGCUGAUAGAACGAAGAGUAGCACCAGAAGACGGAAAACUACUUGGAAAAAGCUGCUAUGGGUGAAGCAAUCAUAUCCAGACAAUUACACGGAUCAAGAUACAUUUCUCGAACAUCUGCAGCGAAAUCCACGUCUUCAGCCUUACGACUUUUGGCCAUUGGUAGCAGAUUCCACGGUUAUAGUACAACACGUUUGUUCGGUCAUUAUAUUCAUUGUUUCUUUCGUUGGGAUAUAUGAUAAACAUGUCUCGCCAGUUUCUGUGGUUGGCUGGGGCUCUAUUGCUACCUUUUUGGGGUGGGUGUUAUGGGAUUUAUGGGUGGGACAGGAAGAAAGUACUCGUCCAGCAUUUCCACCACCGCAGCCUUUCUCUCACAGUGUAUCUGCAACAAGUUCAACACCAAACCUAUUGGCAACAGCUGCAAGUGGGCCAAGGCAAUCCUACUCGAUGUCAACAACAUCUCUUCAAUCUACAGCCUCGAAUCUAACCCAACCACCUCCAAUACGACCGGUUUAUACACCACAUAAUU
antisense: AAUUAUGUGGUGUAUAAACCGGUCGUAUUGGAGGUGGUUGGGUUAGAUUCGAGGCUGUAGAUUGAAGAGAUGUUGUUGACAUCGAGUAGGAUUGCCUUGGCCCACUUGCAGCUGUUGCCAAUAGGUUUGGUGUUGAACUUGUUGCAGAUACACUGUGAGAGAAAGGCUGCGGUGGUGGAAAUGCUGGACGAGUACUUUCUUCCUGUCCCACCCAUAAAUCCCAUAACACCCACCCCAAAAAGGUAGCAAUAGAGCCCCAGCCAACCACAGAAACUGGCGAGACAUGUUUAUCAUAUAUCCCAACGAAAGAAACAAUGAAUAUAAUGACCGAACAAACGUGUUGUACUAUAACCGUGGAAUCUGCUACCAAUGGCCAAAAGUCGUAAGGCUGAAGACGUGGAUUUCGCUGCAGAUGUUCGAGAAAUGUAUCUUGAUCCGUGUAAUUGUCUGGAUAUGAUUGCUUCACCCAUAGCAGCUUUUUCCAAGUAGUUUUCCGUCUUCUGGUGCUACUCUUCGUUCUAUCAGCAUGUCUUCCUCUACUUCUUAAUCGUCCAGCAUCUCCAUUUGUCAUGCGCAAUUGGUUGACAG
B3: GS2641: dsRNA trigger targeting B. cinerea Bcsec15 (XM_024692064.1); trigger SEQ ID NO 51, RNA 55, reverse complement 59 (nucleic acid, listed as Botrytis cinerea)
sense: CAAACAAUGGAGGGUUGGGGAUAUUCAGUUGCCAUAUUAGAUGCUUAUGUGCUUAAGCUUUUCUAUAGAUAUGCUGAUUUGUUAAAACGGAAAUUCAGCACAGAUUUUCAACAGAUUGUGUCUACCGAUGAAUACAUGCCUAUGCCUGUCAAUAGCGAAGAAGACUUUGAUAAAAUCAUUCAAGUCAGUUGGUAUGUUCCGGACAGACCGAAAGAAGAAUACACAUUCCCCGGUGUAUUACCAUUCUCCCAGAUGUACCCAAUGUGCUGUAUAGAUAUCAGAAAUUUCCUGAAUCGAUUCUACUUCAUAAUGGAUGAUCAUUUUCAACAGCCAAACAUUAUUGAUGAGACACUUAAGAAGUCGAUAGAUGAGCUUCUGUCUGAGGAUAUUU
antisense: AAAUAUCCUCAGACAGAAGCUCAUCUAUCGACUUCUUAAGUGUCUCAUCAAUAAUGUUUGGCUGUUGAAAAUGAUCAUCCAUUAUGAAGUAGAAUCGAUUCAGGAAAUUUCUGAUAUCUAUACAGCACAUUGGGUACAUCUGGGAGAAUGGUAAUACACCGGGGAAUGUGUAUUCUUCUUUCGGUCUGUCCGGAACAUACCAACUGACUUGAAUGAUUUUAUCAAAGUCUUCUUCGCUAUUGACAGGCAUAGGCAUGUAUUCAUCGGUAGACACAAUCUGUUGAAAAUCUGUGCUGAAUUUCCGUUUUAACAAAUCAGCAUAUCUAUAGAAAAGCUUAAGCACAUAAGCAUCUAAUAUGGCAACUGAAUAUCCCCAACCCUCCAUUGUUUG
B4: GS2640: dsRNA trigger targeting B. cinerea Bcsec15 (XM_024692064.1); trigger SEQ ID NO 50, RNA 54, reverse complement 58 (nucleic acid, listed as Botrytis cinerea)
sense: AAAUUCAGCACAGAUUUUCAACAGAUUGUGUCUACCGAUGAAUACAUGCCUAUGCCUGUCAAUAGCGAAGAAGACUUUGAUAAAAUCAUUCAAGUCAGUUGGUAUGUUCCGGACAGACCGAAAGAAGAAUACACAUUCCCCGGUGUAUUACCAUUCUCCCAGAUGUACCCAAUGUGCUGUAUAGAUAUCAGAAAUUUCCUGAAUCGAUUCUACUUCAUAAUGGAUGAUCAUUUUCAACAGCCAAACAUUAUUGAUGAGACACUUAAGAAGUCGAUAGAUGAGCUUCUGUCUGAGGAUAUUU
antisense: AAAUAUCCUCAGACAGAAGCUCAUCUAUCGACUUCUUAAGUGUCUCAUCAAUAAUGUUUGGCUGUUGAAAAUGAUCAUCCAUUAUGAAGUAGAAUCGAUUCAGGAAAUUUCUGAUAUCUAUACAGCACAUUGGGUACAUCUGGGAGAAUGGUAAUACACCGGGGAAUGUGUAUUCUUCUUUCGGUCUGUCCGGAACAUACCAACUGACUUGAAUGAUUUUAUCAAAGUCUUCUUCGCUAUUGACAGGCAUAGGCAUGUAUUCAUCGGUAGACACAAUCUGUUGAAAAUCUGUGCUGAAUUU

test system: Botrytis cinerea conidia; assay: In vitro liquid-based assay (fungal biomass, 96-well plates, Cytation 5); assay type: cell-based; conditions: 25 ppm dsRNA, co-incubated with conidia for three days, vs untreated control
Experimental: Fungal culture. The Botrytis cinerea was plated each week the culture onto Malt Extract Agar (MEA) from long-term storage on silica stored at 4° C. Three pellets of silica were added to the center of a MEA agar plate and grown at room temperature without parafilm/tape seal for 10-14 days before use; a culture 12 days old was typically used.
Spore and media preparation. A pure culture of B. cinerea was flooded with a 0.01% Triton x-100 solution and conidia scraped free with a sterile hockey stick. The suspension was transferred to two, 1.5 mL centrifuge tubes and centrifuged at 8000 rpm for two minutes. The supernatant was discarded, pelleted spores washed twice with sterile water, then resuspended in sterile water. Conidia were quantified using a hemacytometer and diluted to a final concentration of 5000 conidia/mL stock. A stock solution of 1.25× minimal media was prepared for the assay setup using the components below. Once the stock solution was made, the pH was adjusted to 6.0 using NaOH or KOH, then filter sterilized through a 0.2 um filter tower and vacuum pump and stored at 4° C. The Kao & Michayluk Vitamins (100×) is a filter sterilized stock solution. The stock contains vitamins and amino acids as described by Kao & Michayluk. After filter sterilization, 20 mg of 4-Aminobenzoic acid in 100 ml of solution was added.
Experimental setup. Screening assays were setup in 96-well plates with conidia co-incubated with treatments (controls and dsRNAs) for three days before determining fungal biomass. Each treatment was replicated eight times within a single plate. In each well consisted of 12.5 μl of conidia suspension, 25 μl of the treatment, 12.5 μl of sterile deionized water, and 200 μl of minimal media. Each plate was covered with a breath right film and placed in the percival growth chamber at 23° C. on the shaking platform set to 120 RPM with 24-hour lighting. Plates were incubated for 72 hours before determining fungal growth.
Reading assay plate. Fungal biomass was determined by reading plates with the Cytation 5 machine. The program was set to compile 8 photo slices per well under brightfield microscopy with a 2.5× lens to measure biomass.
Data analysis. Analysis will automatically run on Cytation5 to determine final biomass.
Results are shown in Table 1B representing the average reduction in biomass vs. control for tested sequences across several runs described above.

Molecule	Average % Reduction in Biomass
B1	20%
B2	5%
B3	14%
B4	24%

same assay, conditions: 150 ppm dsRNA, co-incubated with conidia for three days, vs untreated control

Molecule	Average % Reduction in Biomass
B1	39%
B2	24%
B3	37%
B4	54%

test system: Botrytis cinerea isolate (B05.10); assay: Detached leaf assay (tomato leaflets, lesion size); assay type: in vivo; conditions: 30 ppm, five days post inoculation, vs untreated inoculated control
Experimental: Plant tissue. Tomato plants, variety Brandywine, were grown in the greenhouse for 3 weeks before harvesting the first true leaves for assays. Nodes 2-4 were prioritized for harvest and only lateral leaflets were used for assays. Leaflets of approximately the same size were used each week and were randomized among treatments. Detached leaflets were immediately brought into the lab for treatment and used within 4 hours of harvest. Detached leaflets were kept at 4° C. until they were treated and placed onto a 1% water agar medium for incubation.
Fungal culture. A Botrytis cinerea isolate (B05.10) was preserved on silica for long-term storage and pulled from these tubes stored at 4° C. for growth on a nutritive medium. Three pellets of silica were added to the center of a Malt Extract Agar (MEA) agar plate and grown at room temperature without parafilm/tape seal for ˜14 days, or until abundant conidia formation, before use.
Treatment of leaflets. Leaflets were treated 24 hours before inoculation and applied using an atomizer to get a fine mist of small droplets entirely covering the leaflet. Silwet L-77 was used as a spreader and added for a 0.03% final concentration (Silwet L-77 brand Phyto Technology Laboratories, S7777 Lot #14D7777001 F). The inoculated control was sprayed with the same volume of sterile DI water with Silwet L-77 in the absence of fungicide or experimental material. Leaflets were spray treated by laying them on a paper towel and holding the atomizer ˜6″ away from the leaflet for applications. Treated leaves were placed on a 1% water agar (10 g Bacto Agar, Difco, in 1 L deionized water, sterilized for 30 minutes at 121° C. and poured when reached a temp of 55° C. into 100×20 mm Petri dishes), with lids of the Petri dishes placed back on before putting Petri dishes under plastic bags to maintain humidity before inoculation the following day. Petri dishes of treated leaflets were left on the lab counter until the following day. Each treatment was replicated ten times with each replicate being a single treated leaflet with two inoculation sites, one on each side of the leaf midvein.
Inoculation. The conidial suspension was prepared by pouring a 7% white grape juice solution onto the culture plate, then scraping the plate with a sterile spatula to dislodge the spores and mycelia. The grape juice solution was prepared by mixing Welch's brand organic white grape juice into sterile deionized water. After dislodging the spores and mycelia of the culture, the suspension was poured through two layers of cheesecloth to remove fungal mycelia and catch the conidial suspension in a clean 50 mL conical tube. Approximately 3 uL of TWEEN 20 was added to conidial suspension to prevent sticking to conical tube. The spore concentration was determined using a Neubauer Improved hemocytometer and inoculum was diluted with more 7% grape juice until a spore concentration of 1×10^5 conidia/mL was reached. Inoculum was used to inoculate host tissue within 2 hours of preparation. Each tomato leaflet was inoculated twice, with inoculation sites placed one per side of the leaflet midvein. A 10 μL volume of spore suspension was placed at each inoculation site using a repeater pipette. Special care was taken not to touch the tip to leaflet surface to avoid contamination between treatments.
Incubation. Petri dishes were placed on lunch trays 6 plates high and moved to an incubator. The incubator was humidity controlled and holds at ˜75% relative humidity. The incubator was kept on 12/12 light/dark days and is set to a temperature of 23° C.
Rating. Measurements were taken at five days post inoculation (DPI). Each lesion that developed was measured using electronic calipers in 2 directions perpendicular to each other to help determine lesion diameter.
Data analysis. Data was analyzed using the SAS JMP statistical program (version 13.2.1) with comparisons made to the untreated, inoculated control. […]

Molecule	Average % Reduction in Lesion Size
B2	28.77%
B3	15.75%
B4	19.63%

same assay, conditions: 50 ppm, five days post inoculation, vs untreated inoculated control

Molecule	Average % Reduction in Lesion Size
B2	46.11%
B3	30.49%
B4	22.76%
